Measurements reported in publication PMC4734655.

Target: recombinant human IL-8 (interleukin-8) (human)
Test: SPR; Biacore; IL-8 immobilised on a CM5 chip by amine coupling (Fc2), BSA on the reference cell (Fc1); soluble recombinant Mtb proteins as analytes at 2.5, 5, 10 and 20 uM; 22 °C, PBS pH 7.4 with 0.005% P20; flow 5 ul/min; one-to-one model

Sequence of recombinant M. tuberculosis rSahH (His-tagged, from pHis-sahH) (P9WGV3 whole entry): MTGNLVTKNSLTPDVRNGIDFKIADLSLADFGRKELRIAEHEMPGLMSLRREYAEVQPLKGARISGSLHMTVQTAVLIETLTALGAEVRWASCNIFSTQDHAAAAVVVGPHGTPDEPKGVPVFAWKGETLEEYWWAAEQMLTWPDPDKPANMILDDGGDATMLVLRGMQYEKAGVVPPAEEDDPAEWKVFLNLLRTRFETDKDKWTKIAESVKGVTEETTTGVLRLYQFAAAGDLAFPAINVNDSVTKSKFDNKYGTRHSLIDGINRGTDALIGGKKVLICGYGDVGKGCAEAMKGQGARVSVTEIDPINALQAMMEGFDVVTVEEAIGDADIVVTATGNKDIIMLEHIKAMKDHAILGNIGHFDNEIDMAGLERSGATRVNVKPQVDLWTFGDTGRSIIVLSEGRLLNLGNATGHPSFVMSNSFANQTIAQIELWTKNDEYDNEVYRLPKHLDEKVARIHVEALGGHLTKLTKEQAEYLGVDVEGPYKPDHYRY

Substance “recombinant M. tuberculosis rSahH (His-tagged, from pHis-sahH) (from UniProt P9WGV3 1-495) (enzyme)” has a Kd of 714 pM.
